The test deals with T1, MBP-Ync13-6xHis (Schizosaccharomyces pombe, UniProt O13683 1-1237).
T1 construct: Ync13, Munc13/UNC-13 family protein of Schizosaccharomyces pombe; FL cDNA in pET21a-MBP; MBP-TEV-GGSGGS precedes Ync13; also called MBP-Ync13-6His; not shown: MBP, N-terminal, kept; His6, C-terminal, kept
T1 sequence (looked up): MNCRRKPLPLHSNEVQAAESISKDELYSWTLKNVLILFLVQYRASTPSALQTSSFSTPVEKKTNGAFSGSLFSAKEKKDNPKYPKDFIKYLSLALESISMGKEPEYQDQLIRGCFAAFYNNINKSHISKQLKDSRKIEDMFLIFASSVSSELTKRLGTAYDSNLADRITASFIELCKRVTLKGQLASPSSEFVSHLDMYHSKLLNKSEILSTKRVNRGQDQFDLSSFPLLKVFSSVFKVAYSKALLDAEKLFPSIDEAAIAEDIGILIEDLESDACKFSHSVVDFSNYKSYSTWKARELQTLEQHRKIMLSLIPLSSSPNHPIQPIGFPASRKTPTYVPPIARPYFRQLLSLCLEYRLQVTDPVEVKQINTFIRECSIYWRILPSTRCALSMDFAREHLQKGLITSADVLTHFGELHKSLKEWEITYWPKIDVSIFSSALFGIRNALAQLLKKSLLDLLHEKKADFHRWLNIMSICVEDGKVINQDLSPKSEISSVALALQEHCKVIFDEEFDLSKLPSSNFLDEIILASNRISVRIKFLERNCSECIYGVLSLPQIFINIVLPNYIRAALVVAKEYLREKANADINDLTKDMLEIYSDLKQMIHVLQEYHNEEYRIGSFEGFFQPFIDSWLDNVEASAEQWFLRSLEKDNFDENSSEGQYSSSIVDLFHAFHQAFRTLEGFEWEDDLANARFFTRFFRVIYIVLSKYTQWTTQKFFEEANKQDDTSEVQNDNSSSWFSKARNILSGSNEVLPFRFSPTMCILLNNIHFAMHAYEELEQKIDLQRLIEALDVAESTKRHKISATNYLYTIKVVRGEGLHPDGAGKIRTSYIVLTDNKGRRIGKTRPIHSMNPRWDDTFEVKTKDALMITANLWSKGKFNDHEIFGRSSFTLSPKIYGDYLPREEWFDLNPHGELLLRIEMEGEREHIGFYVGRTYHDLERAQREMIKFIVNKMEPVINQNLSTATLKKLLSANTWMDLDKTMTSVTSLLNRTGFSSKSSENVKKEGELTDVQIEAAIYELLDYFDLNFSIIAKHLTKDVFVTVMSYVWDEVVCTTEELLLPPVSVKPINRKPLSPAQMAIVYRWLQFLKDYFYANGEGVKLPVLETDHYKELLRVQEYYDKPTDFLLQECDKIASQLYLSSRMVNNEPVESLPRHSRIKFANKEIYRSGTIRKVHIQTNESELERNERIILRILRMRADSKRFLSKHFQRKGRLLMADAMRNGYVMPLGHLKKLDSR
As to the kind of experiment: supernatant depletion assay; Rga7-6xHis at 4 µM titrated with MBP-Ync13-6xHis immobilized on Cobalt beads; beads pelleted at 16,000g, supernatant on SDS-PAGE, Coomassie, bound fraction fitted. The following applies: both partners purified.

A word on the Kd: it is a measure of binding affinity in units of concentration. Low values mean higher affinity, high ones lower affinity.

B1: Rga7-6xHis (natural protein, Schizosaccharomyces pombe, UniProt O94466 1-695, looked up)
chain: MLSAPSSSTTPASPPTSPPNTTSSDDFAVLKEPKVEAILNSELGLAILNDRIKDYLLTCKELAGFFKKRSILEEESGKNLQKLAKSYLETFQSKHHSPQSFSASVITSMEIHEQLANHSLTLQKTLSAFSDQVIEFHKNAERKRKSIKEYAKKQENAYLEAVMQMDKSKSRFKGAETEYNRALDNKNTGDSQKKVGFFKPKSNAQLTKLEDEARLKAENAESDMHSKIENAQNVQKQLLCIHRPNYIKQFFSLQREIESSLIANYLRYTKLCESNTLLNGLTIRPQKPTPTNCGLQHALDNINANTDFVQYVLHASIKHEDNKNPTDASKTKIIQPPSSYGTGSSAGKTNPPVNPTIKVTAAIPSPLQNTNPAPSTFPNPSVASPAFPNSSTSNPSTAPASASPLASTLKPSTANDTNGSSSSSSSNPRTSSPLASNAENKPPVAQQSPPVLLPTLPPIQTTTIQTSREVAPPPSSINSNRAASPFRPTSVSPQPSSPTKSLLFGARLDAIILREHSNIPNIVMQCTSQVENFGLNLQGIYRVPSSSARVNMLRSQFENNPLLQLHTPEDYENDVHAVADLLKIFFRELREPLIPDNHQRDFIDAGNVEDESRRRDAVHRAINDLPDANYSTIRHLTIHLAKIKENSDVNKMSTNNLAIIWGPTIIKQATIPEISSFSRTIEILIDYCFTIFDYD
notes: Rga7, F-BAR protein and Rho2 GAP of Schizosaccharomyces pombe; FL Rga7 in pET21a; also called Rga7-6His; not shown: His6, C-terminal, kept
Regarding B1, the equilibrium dissociation constant (Kd) turned out to be 10 µM.

The record behind these values is article PMC12574955, “The Ync13–Rga7–Rng10 complex selectively coordinates secretory vesicle trafficking and secondary septum formation during cytokinesis” (PLOS Biology, 2025).
